Source: publication PMC6954422

Experiments:
[1] = molecular target: stammer-less MITF(Δ) protein fragment 217–296 (Mus musculus); assay: SEC
[2] = molecular target: MITF(wt) protein fragment 217–296 (Mus musculus); assay: SEC

## stammer-less MITF(Δ) protein fragment 217–296 (domain or fragment)
[1]
  stoichiometry N: 2

## MITF(wt) protein fragment 217–296 (domain or fragment)
[2]
  stoichiometry N: 2
